B2: recombinant HCIQ2c1 Kunitz-type peptide from Heteractis crispa (peptide, UniProt A0A6B7FBD3 28-85, looked up)
chain: IQGNICSEPKKVGRCRGSFPRFYFDSETGKCTPFIYGGCGGNGNNFETLHACRAICRA
notes: HCIQ2c1, Kunitz-type peptide of the sea anemone Heteractis crispa; mature peptide of 58 aa (precursor 85 aa: signal peptide 22 aa, propeptide 5 aa ending in Lys-Arg at 26-27, mature peptide 58 aa); begins with Ile-Gln; measured mass 6330 Da; numbers count on: the mature protein; also called rHCIQ2c1; source: E. coli BL21 (DE3), thioredoxin fusion, purified (Ni-NTA, CNBr cleavage, RP-HPLC)

What all share (conditions): both partners purified
In assay [1] the target is trypsin. Nature of the assay: enzyme inhibition (Dixon method); trypsin 208 nM, substrate BAPNA 0.6 and 1.2 mM, peptide 0–26.6 µM (rHCIQ2c1) or 0–24 µM (rHCIQ4c7); three parallel experiments.
The target of assay [2] is T1, human neutrophil elastase (human, UniProt P08246 30-267).
T1 sequence (looked up): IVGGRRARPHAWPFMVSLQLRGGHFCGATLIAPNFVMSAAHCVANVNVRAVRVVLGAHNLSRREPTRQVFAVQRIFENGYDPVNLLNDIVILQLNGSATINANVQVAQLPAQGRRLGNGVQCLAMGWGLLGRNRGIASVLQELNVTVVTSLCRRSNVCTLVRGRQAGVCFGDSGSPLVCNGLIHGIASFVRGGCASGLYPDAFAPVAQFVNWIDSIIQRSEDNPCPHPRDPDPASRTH
In words: SPR; Biacore 3000; peptides covalently immobilised on a CM4 chip (970 RU rHCIQ2c1, 460 RU rHCIQ4c7); proteinases 1 nM to 5 μM flowed over; 25 °C; HBS: 0.15 M NaCl, 0.01 M HEPES, pH 7.4. On the technique in general: In SPR one partner is held on a chip, and binding of the other changes the refractive index at the surface.

In assay [3] the target is B2. The assay is described as above.

No end group written: not given here.

Data on three molecules can be found in paper PMC7060258, “A new multigene HCIQ subfamily from the sea anemone Heteractis crispa encodes Kunitz-peptides exhibiting neuroprotective activity against 6-hydroxydopamine” (Scientific Reports, 2020).

Chain of trypsin (P00760 24-246): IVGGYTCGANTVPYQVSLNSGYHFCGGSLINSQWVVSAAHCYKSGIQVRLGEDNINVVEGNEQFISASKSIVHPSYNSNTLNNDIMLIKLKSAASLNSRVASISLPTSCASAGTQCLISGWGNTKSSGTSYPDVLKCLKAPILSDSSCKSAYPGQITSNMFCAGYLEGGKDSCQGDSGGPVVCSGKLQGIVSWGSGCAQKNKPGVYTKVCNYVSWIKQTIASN

B1: recombinant HCIQ4c7 Kunitz-type peptide from Heteractis crispa (peptide)
chain: IQGNICSEPKKVGRCRESFPRFYFDSETGKCTPFIYGGCGGNGNNFETLHACRAICRA
modifications: not fully specified; cysteine pairing not given here
For B1, the affinity in assay [1], expressed as Ki, was 190 nM. Also, in assay [2], the Ka came to 1.05e+06 M⁻¹; the Kd (commonly the constant that tells how readily two partners part at equilibrium) was 955 nM; the koff (as a rule, the rate constant with which the complex falls apart) amounted to 0.0114 s⁻¹; the on-rate constant (kon) (as a rule, the rate constant with which the complex forms) is 11900 M⁻¹ s⁻¹.
For B2, in that order: 52 nM, 7.9e+06 M⁻¹, 127 nM, 0.00861 s⁻¹ and 68000 M⁻¹ s⁻¹.

B3: pancreatic kallikrein (enzyme)
chain: not shown
modifications: Species and supplier are not given; porcine pancreatic kallikrein is assumed as the usual commercial enzyme. Limits are the active chain of the candidate entry. The natural enzyme is glycosylated …
Regarding B3, in assay [3], the Ka is 2.04e+06 M⁻¹, the Kd was determined as 490 nM, the koff came out at 0.00379 s⁻¹ and the kon turned out to be 49400 M⁻¹ s⁻¹.
